Experimental data reported in publication PMC4837482, “The complex binding mode of the peptide hormone H2 relaxin to its receptor RXFP1” (Nature Communications, 2016).
Positions count from the first letter of the chain named.

Experiments:
Assay in all cases: cAMP activity assay (pCRE β-galactosidase reporter), transfected HEK293T cells
Format in all cases: cell-based
RXFP1 A55L = biological target: T1, RXFP1 A55L (Homo sapiens, UniProt Q9HBX9, A77L); details: construct A55L, ±s.e.m.
T1 construct: cells expressing full-length RXFP1 and mutants; expressed in transfected cells; host or cells: HEK293T
T1 sequence (Q9HBX9 23-757 A77L limits assumed): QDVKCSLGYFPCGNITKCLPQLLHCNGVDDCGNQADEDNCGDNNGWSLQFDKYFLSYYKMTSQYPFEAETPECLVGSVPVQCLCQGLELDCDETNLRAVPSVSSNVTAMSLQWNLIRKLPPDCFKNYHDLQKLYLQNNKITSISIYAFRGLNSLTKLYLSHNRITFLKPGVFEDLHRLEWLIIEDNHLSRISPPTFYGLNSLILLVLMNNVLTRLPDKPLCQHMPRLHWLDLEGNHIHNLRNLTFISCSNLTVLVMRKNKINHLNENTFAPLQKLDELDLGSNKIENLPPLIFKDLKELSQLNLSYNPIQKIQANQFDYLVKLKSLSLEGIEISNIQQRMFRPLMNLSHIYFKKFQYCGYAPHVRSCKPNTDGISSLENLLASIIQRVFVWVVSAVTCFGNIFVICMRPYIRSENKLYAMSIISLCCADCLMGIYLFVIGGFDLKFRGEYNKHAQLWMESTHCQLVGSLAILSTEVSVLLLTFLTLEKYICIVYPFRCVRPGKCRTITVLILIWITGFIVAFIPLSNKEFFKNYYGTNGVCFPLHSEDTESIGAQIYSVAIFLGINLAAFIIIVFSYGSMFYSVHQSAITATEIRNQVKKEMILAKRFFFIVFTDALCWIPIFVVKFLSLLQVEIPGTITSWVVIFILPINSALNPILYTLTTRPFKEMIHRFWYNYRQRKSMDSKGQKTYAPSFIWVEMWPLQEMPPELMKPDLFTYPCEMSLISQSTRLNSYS
Procedure: (§1) Media was aspirated and plates stored frozen at −80 °C overnight. […] H2 relaxin dilutions were prepared in minimal media containing 1% DMSO. Positive and negative control stimulations were achieved by incubation with 5 μM Forskolin and minimal media/1% DMSO, respectively. Plates were developed by 10 min of incubation in 25 μl of lysis buffer 1 (100 mM Na2HPO4, pH 8.0, 0.2 mM MgSO4 0.01 mM MnCl2); a further 10 min of incubation in 100 μl of buffer 2 (100 mM Na2HPO4, pH 8.0, 2 mM MgSO4, 0.1 mM MnCl2, 0.5% Triton X-100, 40 mM β-mercaptoethanol); then to each well 25 μl of the β-galactosidase substrate, chlorophenol red-β-D-galactopyranoside (Roche) was added. All incubation steps were conducted with orbital shaking. Color-change was monitored and readings were taken on a Benchmark Plus Microplate Reader (Bio-Rad) at 570 nm. A minimum of three separate experiments were performed, each of them in triplicate, and data were pooled and presented as percentages of the maximum response induced by 5 μM Forskolin±s.e.m.

RXFP1 F54A/Y58A = biological target: T2, RXFP1 F54A/Y58A (Homo sapiens, UniProt Q9HBX9, F76A/Y80A); details: construct F54A/Y58A, ±s.e.m.
T2 construct: cells expressing full-length RXFP1 and mutants; expressed in transfected cells; host or cells: HEK293T
T2 sequence (Q9HBX9 23-757 F76A/Y80A limits assumed): T1 sequence (Q9HBX9 23-757 A77L limits assumed) with F54A, L55A, Y58A
Procedure: as §1

RXFP1 N43A = biological target: T3, RXFP1 N43A (Homo sapiens, UniProt Q9HBX9, N65A); details: construct N43A, ±s.e.m.
T3 construct: transiently transfected human embryonic kidney (HEK) 293T cells expressing full-length RXFP1 and mutants; expressed in transfected cells; host or cells: HEK293T
T3 sequence (Q9HBX9 23-757 N65A limits assumed): T1 sequence (Q9HBX9 23-757 A77L limits assumed) with N43A, L55A
Procedure: as §1

[1] = percentage of maximum response to 5 μM Forskolin

With “H2 relaxin: two-chain 6-kDa peptide hormone structurally related to insulin; recombinant human gene-2 H2 relaxin provided by Corthera” as the substance, how does the “H2 relaxin pEC50” value (RXFP1 A55L; cAMP reporter) read?
The value was 10.75±0.17 (5).

What about the “H2 relaxin Emax” value (RXFP1 A55L; [1]) of the same substance?
The value was 123.59±8.51 (5) %.

What about the “H2 relaxin pEC50” value (RXFP1 F54A/Y58A; cAMP reporter) of the same substance?
The value was 9.87±0.08 (5)***^,#,θ.

And the “H2 relaxin Emax” value (RXFP1 F54A/Y58A; [1])?
The value was 99.94±2.19 (5) %.

What about the “H2 relaxin pEC50” value (RXFP1 N43A; cAMP reporter) of the same substance?
Its value is 9.06±0.48 (4).

What about the “H2 relaxin Emax” value (RXFP1 N43A; [1]) of the same substance?
The value was 120.23±7.81 (4) %.
